The source of these data is patent US20180230231A1 (Memorial Sloan Kettering, published 2018).

Assay [1] has as its target phrGFP-ΔMUC16^c334 on SKOV3 cells (human). The assay is described as follows: FACS dot plot, surface staining, goat anti-mouse PE (FL2) against GFP (FL1); secondary antibody alone gives 4.11 in this quadrant (FIG. 7A).
Assay [2] has the same target. The assay is described as follows: FACS dot plot, surface staining, goat anti-mouse PE (FL2) against GFP (FL1); secondary antibody alone gives 0.69 in this quadrant (FIG. 7A).
Assay [3] addresses phrGFP-ΔMUC16^c114 on SKOV3 cells (human). As to the kind of experiment: FACS dot plot, surface staining, goat anti-mouse PE (FL2) against GFP (FL1); secondary antibody alone gives 0.55 in this quadrant (FIG. 7A).
In assay [4] the target is human MUC16 on OVCAR3 cells (human). The assay is described as follows: FACS dot plot, surface staining, goat anti-mouse PE (FL2) against GFP (FL1); secondary antibody alone gives 8.06 in this quadrant (FIG. 7A).
For assay [5], the target named is phrGFP-ΔMUC16^c114 on SKOV3 cells (human). As to the kind of experiment: FACS dot plot, surface staining, goat anti-mouse PE (FL2) against GFP (FL1); secondary antibody alone gives about 0.9 in this quadrant (FIG. 7A).
phrGFP-ΔMUC16^c114 on SKOV3 cells (human), sequence (chain, as listed by the source mutant limits assumed): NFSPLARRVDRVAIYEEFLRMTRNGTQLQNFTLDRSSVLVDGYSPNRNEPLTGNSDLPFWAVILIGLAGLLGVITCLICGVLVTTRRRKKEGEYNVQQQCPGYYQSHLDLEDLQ
In assay [6] the target is phrGFP-ΔMUC16^c334 on SKOV3 cells (human). As to the kind of experiment: FACS dot plot, surface staining, goat anti-mouse IgG PE (FL2) against GFP (FL1); secondary antibody alone gives 0.69 in this quadrant (FIG. 7A).
The target in assay [7] is phrGFP-ΔMUC16^c114 on SKOV3 cells (human). The assay is described as follows: FACS dot plot, surface staining, goat anti-mouse IgG PE (FL2) against GFP (FL1); secondary antibody alone gives 0.55 in this quadrant (FIG. 7A).
The target of assay [8] is human MUC16 on OVCAR3 cells (human). As to the kind of experiment: FACS dot plot, surface staining, goat anti-mouse IgG PE (FL2) against GFP (FL1); secondary antibody alone gives 8.06 in this quadrant (FIG. 7A).
Assay [9] addresses phrGFP-ΔMUC16^c334 on SKOV3 cells (human). The assay is described as follows: FACS dot plot, surface staining, goat anti-mouse IgG PE (FL2) against GFP (FL1); secondary antibody alone gives 4.11 in this quadrant (FIG. 7A).
For assay [10], the target named is phrGFP-ΔMUC16^c114 on SKOV3 cells (human). As to the kind of experiment: FACS dot plot, surface staining, goat anti-mouse IgG PE (FL2) against GFP (FL1); secondary antibody alone gives about 0.9 in this quadrant (FIG. 7A).
Assay [11] shares this target. As to the kind of experiment: FACS dot plot, surface staining, goat anti-mouse PE (FL2) against GFP (FL1); secondary antibody alone gives about 0.9 in this quadrant.
Assay [12] shares this target. As to the kind of experiment: FACS dot plot, surface staining, goat anti-mouse PE (FL2) against GFP (FL1); secondary antibody alone gives 0.55 in this quadrant.
Assay [13] deals with phrGFP-ΔMUC16^c334 on SKOV3 cells (human). As to the kind of experiment: FACS dot plot, surface staining, goat anti-mouse PE (FL2) against GFP (FL1); secondary antibody alone gives 0.69 in this quadrant.
The target in assay [14] is human MUC16 on OVCAR3 cells (human). The assay is described as follows: FACS dot plot, surface staining, goat anti-mouse PE (FL2) against GFP (FL1); secondary antibody alone gives 8.06 in this quadrant.
The target of assay [15] is phrGFP-ΔMUC16^c334 on SKOV3 cells (human). As to the kind of experiment: FACS dot plot, surface staining, goat anti-mouse PE (FL2) against GFP (FL1); secondary antibody alone gives 4.11 in this quadrant.
Assay [16] has as its target mouse MUC16 on ID8 and BR5-FVB1 cells (mouse). As to the kind of experiment: FACS on BR5-FVB1 (mouse) cells, second antibody alone.
The target is the same in assay [17]. The assay is described as follows: FACS on ID8 (mouse) cells, second antibody alone.
Assay [18] deals with T1, MUC16 Polypeptide 2 (human, not fully specified).
T1 construct: Synthetic peptide
T1 peptide: CTLDRSSVLVDGYSPNRNE
As to the kind of experiment: ELISA on synthetic peptide, hybridoma sup 1:1.

Assay [19] has as its target T2, Mouse MUC16-CD Peptide 1 (mouse, also: N-terminal Cys added for KLH conjugation of immunogen).
T2 construct: A cysteine was added at the N terminus for KLH conjugation of the immunogen
T2 peptide: TLDRKSVFVDGYSQNRDD
As to the kind of experiment: ELISA of clone supernatant on individual mouse MUC16 peptides.

Ends that are not written are not given here.

mouse MUC16 on ID8 and BR5-FVB1 cells (mouse), sequence (chain, as listed by the source limits assumed): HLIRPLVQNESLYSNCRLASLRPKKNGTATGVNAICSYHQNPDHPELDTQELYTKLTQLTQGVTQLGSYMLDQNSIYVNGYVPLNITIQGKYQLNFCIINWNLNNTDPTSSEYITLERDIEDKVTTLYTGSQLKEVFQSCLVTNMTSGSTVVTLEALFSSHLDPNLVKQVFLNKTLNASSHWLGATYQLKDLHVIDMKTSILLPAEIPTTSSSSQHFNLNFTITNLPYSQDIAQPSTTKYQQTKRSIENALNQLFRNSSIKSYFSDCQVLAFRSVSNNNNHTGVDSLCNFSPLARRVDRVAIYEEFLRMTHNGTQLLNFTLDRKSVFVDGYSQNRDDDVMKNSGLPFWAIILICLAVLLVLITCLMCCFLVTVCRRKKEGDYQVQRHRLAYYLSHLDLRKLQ

As for M11 (antibody), the values for the % of events in the upper right quadrant (PE-positive, GFP-positive) in assay [1] and in assay [5] were 33.5% and 1.24%, respectively. In addition, the % of events in the upper left quadrant (PE-positive, GFP-negative) in assay [2] is 1.35%; in [3], 2.55%; in assay [4] it was 95.3%.
For the molecule VK8 (antibody), the results for the % of events in the upper left quadrant (PE-positive, GFP-negative) in assay [6], in assay [7] and in assay [8] were 0.91%, 0.69% and 94.9%, respectively. Further, the figures for the % of events in the upper right quadrant (PE-positive, GFP-positive) in assay [9] and in assay [10] were 6.59% and 1.02%, respectively.
Turning to OC125 (antibody), the % of events in the upper right quadrant (PE-positive, GFP-positive) in assay [11] came to 1.09%; in [15], 25.4%. In addition, the % of events in the upper left quadrant (PE-positive, GFP-negative) was 2.39% in [12], 1.1% in assay [13] and 97% in assay [14].
In the case of G anti Mouse IgG2b-PE (antibody), the % of cells in the PE-positive gate turned out to be 0.99% in [16] and 4.53% in [17].

B1: 4H11.2.5 (antibody, V domains shown)
VH: VKLQESGGGFVKPGGSLKVSCAASGFTFSSYAMSWVRLSPEMRLEWVATISSAGGYIFYSDSVQGRFTISRDNAKNTLHLQMGSLRSGDTAMYYCARQGFGNYGDYYAMDYWGQGTTVTVSS
VL: DIELTQSPSSLAVSAGEKVTMSCKSSQSLLNSRTRKNQLAWYQQKPGQSPELLIYWASTRQSGVPDRFTGSGSGTDFTLTISSVQAEDLAVYYCQQSYNLLTFGPGTKLEVKR
notes: Mouse monoclonal, IgG2b (parent supernatant IgG2b, IgM); also called 4H11 MAb
B1: in [18], the binding result is on record as “binds”.

B2: 4A5.37 (antibody, IgG1, V domains shown)
VH: VKLEESGGGFVKPGGSLKISCAASGFTFRNYAMSWVRLSPEMRLEWVATISSAGGYIFYSDSVQGRFTISRDNAKNTLHLQMGSLRSGDTAMYYCARQGFGNYGDYYAMDYWGQGTTVTVSS
VL: DIELTQSPSSLAVSAGEKVTMSCKSSQSLLNSRTRKNQLAWYQQKTGQSPELLIYWASTRQSGVPDRFTGSGSGTDFTLTISSVQAEDLAVYYCQQSYNLLTFGPGTKLEIKR
notes: Mouse monoclonal, IgG1
Regarding B2, the binding result in [18] is on record as “binds”.

B3: 12B10-3G10 (antibody, V domains shown)
VH: EVKLEESGGGLVQPKGSLKLSCAASGFTFNTYAVHWVRQAPGKGMEWVARIRSKSGNYATYYADSVKDRFTISRNDSQSMLYLQMNNLKTEDTAIYYCVRAGNNGAFPYWGQGTTVTVSS
VL: DIELTQSPSSLSASLGGRVTITCKASQDIKKYIAWYQHKPGKTPRLLIHFTSTLQTGIPSRFSGRGSGRDYSFSISNLESEDIATYYCLQYDSLYTFGGGTKLEIKR
notes: Mouse mAb against mouse MUC16, IgG 2b; also called mouse 12B10 mAb; 12B10-3F7
On to B3, for which the binding result in assay [19] was “binds”.
